Results: paper PMC7384961 (Cell, 2020)

Target: T1, FLAG-BirA(R118G)-TBL1XR1 Y446S (human, UniProt Q9BZK7 1-514, Y446S)
T1 sequence (looked up): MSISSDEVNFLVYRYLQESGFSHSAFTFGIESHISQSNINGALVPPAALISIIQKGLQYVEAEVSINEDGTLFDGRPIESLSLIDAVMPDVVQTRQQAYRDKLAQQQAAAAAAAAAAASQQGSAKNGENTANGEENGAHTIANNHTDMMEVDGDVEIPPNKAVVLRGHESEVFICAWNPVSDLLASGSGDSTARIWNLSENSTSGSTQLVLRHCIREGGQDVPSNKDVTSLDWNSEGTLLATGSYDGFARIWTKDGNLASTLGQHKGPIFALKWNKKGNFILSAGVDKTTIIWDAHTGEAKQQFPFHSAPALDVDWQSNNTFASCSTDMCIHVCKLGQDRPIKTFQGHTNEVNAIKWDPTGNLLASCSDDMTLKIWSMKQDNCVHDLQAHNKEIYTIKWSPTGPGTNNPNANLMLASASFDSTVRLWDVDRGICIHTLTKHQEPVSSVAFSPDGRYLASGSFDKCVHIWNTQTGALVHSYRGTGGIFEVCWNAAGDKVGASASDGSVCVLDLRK
Test: proximity labelling

B1: BACH2 (endogenous) (natural protein)
chain: not shown
- fold gain of interaction against TBL1XR1 WT: ~6 fold
